Laboratory results as given in article PMC3303827.

What was measured:
[1] = target: U266 derived IgE λ light chain (dimer) (human (endogenous in U266)); experiment: ESI-Qq-TOF mass spectrometry; nano-spray; sample in 25 mM PBS pH 7.4; spectra deconvoluted by MaxEnt
[2] = target: U266 derived IgE λ light chain (dimer) (human (endogenous in U266)); experiment: ESI-Qq-TOF mass spectrometry; nano-spray; sample in 20 mM HCl pH 2.0 (methods say pH 2.7); spectra deconvoluted by MaxEnt
[3] = target: U266 derived IgE λ light chain (dimer) (human (endogenous in U266)); experiment: SEC; Superdex 75 10/300 GL; 1 g/L light chain in 20 mM HCl pH 2.0; mobile phase 100 mM Na2SO4, 25 mM Na2HPO4 pH 7.4; calibrated with BSA, chymotrypsinogen A, lysozyme
[4] = target: U266 derived IgE λ light chain (dimer) (human (endogenous in U266)); experiment: SEC; Superdex 75 10/300 GL; 1 g/L light chain in 25 mM PBS pH 7.4; mobile phase 100 mM Na2SO4, 25 mM Na2HPO4 pH 7.4; calibrated with BSA, chymotrypsinogen A, lysozyme

Measured: stoichiometry N

U266 derived IgE λ light chain (dimer) (natural protein)
2: all assays above
